How the values were obtained:
[1] = molecular target: T1, human serum albumin (human, UniProt P02768 25-609); experiment: SPR pH 6.0
T1 construct: also called HSA
Protocol: (§1) The affinity of the purified, multivalent ISVD constructs for human and mouse serum albumin (HSA and MSA, respectively) was determined on the ProteOn XPR36 (BioRad Laboratories, Inc.) instrument. […] The ISVD constructs were injected at 6 different concentrations (between 1 and 500 nM) and allowed to associate for 120 s at 45 μL/min and dissociate for 600s-3600s at 45 μL/min. Evaluation of the sensorgrams was based on the 1:1 Langmuir dissociation model simultaneously fitting on and off-rates.

[2] = molecular target: T2, mouse serum albumin (mouse, UniProt P07724 25-608); experiment: SPR pH 6.0
T2 construct: also called MSA
Protocol: as §1

[3] = molecular target: T1, human serum albumin; experiment: SPR pH 7.4
Protocol: as §1

[4] = molecular target: T2, mouse serum albumin; experiment: SPR pH 7.4
Protocol: as §1

[5] = molecular target: T3, cyno FcRn/b2M (cyno, UniProt Q8SPV9 24-297; Q8SPW0 21-119, biotinylated); experiment: SPR pH 6.0; pH 6.0; cyno FcRn
T3 construct: bought recombinant biotinylated protein (Immunitrack ITF05 or ACRO FCM-C82W5); also called cFcRn; cFcRn/cb2M
Protocol: (§2) The affinity of the purified, multivalent ISVD constructs for human and cyno FcRn was determined on the MASS-2 (Sierra sensors, Gmbh) instrument, hFcRn/hb2M and cFcRn/cb2M was captured on a Biotin-tag Capture Chip or a High Capacity Amine Chip (pre-immobilized with neutravidin). The ISVD constructs were injected at 6 different concentrations (between 1 and 4000 nM) and allowed to associate for 120 s at 45 μL/min and dissociate for 600 s-3600 s at 45 μL/min. […] Evaluation of the sensorgrams was based on the 1:1 Langmuir dissociation model simultaneously fitting on and off-rates.

[6] = molecular target: T4, human FcRn/b2M (human, UniProt P61769 21-119, biotinylated); experiment: SPR pH 6.0; pH 6.0; human FcRn
T4 construct: bought recombinant biotinylated protein (ACRO FCM-H82W4 or Immunitrack ITF01); also called hFcRn; hFcRn/hb2M
Protocol: as §2

[7] = molecular target: T4, human FcRn/b2M; experiment: SPR pH 6.0
Protocol: as §2

[8] = molecular target: T3, cyno FcRn/b2M; experiment: SPR pH 6.0
Protocol: as §2

[9] = molecular target: T4, human FcRn/b2M; experiment: SPR pH 7.4
Protocol: as §2

[10] = molecular target: T3, cyno FcRn/b2M; experiment: SPR pH 7.4
Protocol: as §2

[11] = molecular target: T4, human FcRn/b2M; experiment: SPR pH 6.0; remark: listed apart in the source
Protocol: as §2

[12] = molecular target: T3, cyno FcRn/b2M; experiment: SPR pH 6.0; remark: listed apart in the source
Protocol: as §2

[13] = molecular target: T4, human FcRn/b2M; experiment: SPR pH 7.4; remark: listed apart in the source
Protocol: as §2

[14] = molecular target: T3, cyno FcRn/b2M; experiment: SPR pH 7.4; remark: listed apart in the source
Protocol: as §2

[15] = molecular target: T1, human serum albumin; experiment: SPR pH 6.0; remark: listed apart in the source
Protocol: as §1

[16] = molecular target: T2, mouse serum albumin; experiment: SPR pH 6.0; remark: listed apart in the source
Protocol: as §1

[17] = molecular target: T1, human serum albumin; experiment: SPR pH 7.4; remark: listed apart in the source
Protocol: as §1

[18] = molecular target: T2, mouse serum albumin; experiment: SPR pH 7.4; remark: listed apart in the source
Protocol: as §1

T3 sequence (Q8SPV9 24-297 limits assumed, chain 1 of 2): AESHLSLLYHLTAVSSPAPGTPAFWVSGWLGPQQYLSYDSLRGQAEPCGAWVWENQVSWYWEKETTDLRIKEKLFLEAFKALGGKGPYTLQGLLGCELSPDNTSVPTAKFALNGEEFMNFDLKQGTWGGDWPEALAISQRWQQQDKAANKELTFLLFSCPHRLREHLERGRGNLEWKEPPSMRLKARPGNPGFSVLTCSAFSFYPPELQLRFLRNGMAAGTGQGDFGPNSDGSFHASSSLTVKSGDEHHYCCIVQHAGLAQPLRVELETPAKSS
T3 sequence (Q8SPW0 21-119 limits assumed, chain 2 of 2): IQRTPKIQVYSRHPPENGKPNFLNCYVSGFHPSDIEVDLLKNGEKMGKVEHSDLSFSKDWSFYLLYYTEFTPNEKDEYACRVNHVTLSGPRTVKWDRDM
T2 sequence (P07724 25-608 limits assumed): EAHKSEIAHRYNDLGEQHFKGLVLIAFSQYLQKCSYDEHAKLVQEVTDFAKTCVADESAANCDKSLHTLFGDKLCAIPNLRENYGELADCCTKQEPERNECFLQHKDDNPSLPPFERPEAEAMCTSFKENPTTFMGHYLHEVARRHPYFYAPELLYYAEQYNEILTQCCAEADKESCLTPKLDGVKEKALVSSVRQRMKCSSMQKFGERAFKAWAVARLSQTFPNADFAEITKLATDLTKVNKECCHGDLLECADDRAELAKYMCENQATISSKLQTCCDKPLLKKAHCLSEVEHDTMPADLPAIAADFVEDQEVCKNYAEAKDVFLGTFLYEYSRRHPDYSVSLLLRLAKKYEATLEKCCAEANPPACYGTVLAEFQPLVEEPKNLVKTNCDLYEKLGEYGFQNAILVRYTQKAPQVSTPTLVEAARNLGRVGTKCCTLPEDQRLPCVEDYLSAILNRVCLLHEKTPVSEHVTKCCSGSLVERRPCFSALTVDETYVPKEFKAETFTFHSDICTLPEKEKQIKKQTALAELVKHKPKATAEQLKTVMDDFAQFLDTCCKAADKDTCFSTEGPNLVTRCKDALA
T4 sequence (chain, as listed by the source limits assumed, chain 1 of 2): as the sequence (Q8SPV9 24-297 limits assumed, chain 1 of 2) above, with D39N, Q44E, S99G, G189S, N190S, M217L, T269S counted along it
T4 sequence (P61769 21-119 limits assumed, chain 2 of 2): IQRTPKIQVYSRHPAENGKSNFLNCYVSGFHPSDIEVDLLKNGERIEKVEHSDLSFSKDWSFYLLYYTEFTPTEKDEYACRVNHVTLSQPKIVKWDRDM

B1: T026301195 (bispecific antibody, name in Kabat numbering)
chain: DVQLVESGGGVVQPGGSLRLSCAASGFTFSEYDMYWVRQAPGKGLEWVSAISSGGGSTDYADSVKGRFTISRDNSKNTLYLQMNSLRPEDTALYYCAADTLYTSLTSYSYWGQGTLVTVSSGGGGSGGGGSGGGGSGGGGSGGGGSGGGGSGGGGSEVQLVESGGGVVQPGGSLRLSCAASGFTFRSFGMSWVRQAPGKGPEWVSSISGSGSDTLYADSVKGRFTISRDNSKNTLYLQMNSLRPEDTALYYCTIGGSLSRSSQGTLVTVSSA
notes: bispecific ISVD construct; also called T0263018B11(E1D, S31E, A33D, W100cS)-35GS-ALB23002-A
[1]
  Kd: 6.1 nM
[2]
  Kd: 77 nM
[3]
  Kd: 13 nM
[4]
  Kd: 120 nM
[5]
  Kd: 670 nM
[6]
  Kd: 680 nM

B2: T026301197 (bispecific antibody, name in Kabat numbering)
chain: DVQLVESGGGVVQPGGSLRLSCAASGFTFSSYAMYWVRQAPGKGLEWVSAISQGGGSTDYADSVKGRFTISRDNSKNTLYLQMNSLRPEDTALYYCAADTLYTSLTWYSYWGQGTLVTVSSGGGGSGGGGSGGGGSGGGGSGGGGSGGGGSGGGGSEVQLVESGGGVVQPGGSLRLSCAASGFTFRSFGMSWVRQAPGKGPEWVSSISGSGSDTLYADSVKGRFTISRDNSKNTLYLQMNSLRPEDTALYYCTIGGSLSRSSQGTLVTVSSA
notes: bispecific ISVD construct; also called T0263018B11(E1D, S52aQ)-35GS-ALB23002-A
[7]
  Kd: 71 nM
[8]
  Kd: 41 nM
[9]
  Kd: 2600 nM
[10]
  Kd: 2400 nM
[1]
  Kd: 5.1 nM
[2]
  Kd: 57 nM
[3]
  Kd: 11 nM
[4]
  Kd: 69 nM

B3: T026301198 (bispecific antibody, name in Kabat numbering)
chain: DVQLVESGGGVVQPGGSLRLSCAASGFTFSSYAMYWVRQAPGKGLEWVSAISSGGGSTDYADSVKGRFTISRDNSKNTLYLQMNSLRPEDTALYYCAADTLYTSLTSYSYWGQGTLVTVSSGGGGSGGGGSGGGGSGGGGSGGGGSGGGGSGGGGSEVQLVESGGGVVQPGGSLRLSCAASGFTFRSFGMSWVRQAPGKGPEWVSSISGSGSDTLYADSVKGRFTISRDNSKNTLYLQMNSLRPEDTALYYCTIGGSLSRSSQGTLVTVSSA
notes: bispecific ISVD construct; also called T0263018B11(E1D, W100cS)-35GS-ALB23002-A
[8]
  Kd: 67 nM
[9]
  Kd: 2500 nM
[10]
  Kd: 2900 nM
[1]
  Kd: 7.3 nM
[2]
  Kd: 89 nM
[3]
  Kd: 15 nM
[4]
  Kd: 120 nM

B4: T026301257 (bispecific antibody, not shown: small tags and cut ends)
chain: EVQLVESGGGVVQPGGSLRLSCAASGFTFSSYAMYWVRQAPGKGLEWVSAISSGGGSTDYADSVKGRFTISRDNSKNTLYLQMNSLRPEDTALYYCAADTLYTSLTWYSYWGQGTLVTVSSGGGGSGGGGSGGGGSGGGGSGGGGSGGGGSGGGGSEVQLVESGGGVVQPGGSLRLSCAASGFTFRSFGMSWVRQAPGKGPEWVSSISGSGSDTLYADSVKGRFTISRDNSKNTLYLQMNSLRPEDTALYYCTIGGSLSRSSQGTLVTVSSA
notes: tetravalent ISVD construct; also called X-Y-FcRn-35GS-ALB23002
[11]
  Kd: 34 nM
[12]
  Kd: 20 nM
[13]
  Kd: 1200 nM
[14]
  Kd: 710 nM
[15]
  Kd: 14 nM
[16]
  koff: 0.056 s⁻¹
[17]
  Kd: 11 nM
[18]
  koff: 0.052 s⁻¹

B5: T026301259 (bispecific antibody, not shown: small tags and cut ends)
chain: EVQLVESGGGVVQPGGSLRLSCAASGFTFSSYAMYWVRQAPGKGLEWVSAISSGGGSTDYADSVKGRFTISRDNSKNTLYLQMNSLRPEDTALYYCAADTLYTSLTWYSYWGQGTLVTVSSGGGGSGGGSEVQLVESGGGVVQPGGSLRLSCAASGFTFRSFGMSWVRQAPGKGPEWVSSISGSGSDTLYADSVKGRFTISRDNSKNTLYLQMNSLRPEDTALYYCTIGGSLSRSSQGTLVTVSSA
notes: tetravalent ISVD construct; also called X-Y-FcRn-ALB23002
[11]
  Kd: 25 nM
[12]
  Kd: 15 nM
[13]
  Kd: 830 nM
[14]
  Kd: 480 nM
[15]
  Kd: 9.8 nM
[16]
  koff: 0.038 s⁻¹
[17]
  Kd: 7.32 nM
[18]
  koff: 0.037 s⁻¹

B6: T026301266 (other)
VHH 1: EVQLVESGGGVVQPGGSLRLSCAASGFTFSSYAMYWVRQAPGKGLEWVSAISSGGGSTDYADSVKGRFTISRDNSKNTLYLQMNSLRPEDTALYYCAADTLYTSLTWYSYWGQGTLVTVSS
VHH 2: EVQLVESGGGVVQPGGSLRLSCAASGFTFRSFGMSWVRQAPGKGPEWVSSISGSGSDTLYADSVKGRFTISRDNSKNTLYLQMNSLRPEDTALYYCTIGGSLSRSSQGTLVTVSSA
notes: tetravalent ISVD construct; also called X-FcRn-Y-ALB23002
[11]
  Kd: 41 nM
[12]
  Kd: 26 nM
[13]
  Kd: 1600 nM
[14]
  Kd: 880 nM
[15]
  Kd: 12 nM
[16]
  koff: 0.053 s⁻¹
[17]
  Kd: 8.6 nM
[18]
  koff: 0.048 s⁻¹

— patent publication US20240132624A1 (Ablynx, published 2024)
